Biological target: T1, Tsa1^WT-HA (peroxiredoxin Tsa1, single C-terminal HA tag at the endogenous locus) (S. cerevisiae, UniProt P34760 1-196)
T1 sequence (looked up): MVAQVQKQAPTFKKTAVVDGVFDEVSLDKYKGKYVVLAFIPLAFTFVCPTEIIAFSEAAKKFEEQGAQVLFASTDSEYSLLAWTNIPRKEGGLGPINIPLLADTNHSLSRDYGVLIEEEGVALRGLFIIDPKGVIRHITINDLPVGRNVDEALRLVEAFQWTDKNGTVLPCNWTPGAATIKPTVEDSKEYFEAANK
Assay: in vitro thioredoxin reaction, non-reducing SDS-PAGE with immunoblot

B1: recombinant Trx1-HIS (enzyme, S. cerevisiae, UniProt P22217 1-103, looked up)
chain: MVTQFKTASEFDSAIAQDKLVVVDFYATWCGPCKMIAPMIEKFSEQYPQADFYKLDVDELGDVAQKNEVSAMPTLLLFKNGKEVAKVVGANPAAIKQAIAANA
Q: Does B1 bind?
A: Result: binds

Source: paper doi:10.1101/2023.12.13.571451 (bioRxiv, 2023)
